Drawing on US10738094B2, “Peptides and combination of peptides for use in immunotherapy against ovarian cancer and other cancers” (immatics biotechnologies GmbH, priority 2015, dated 2020), this text covers Peptide exchange for 65 substances.

The target of this assay is HLA-A*02:01 (Homo sapiens, UniProt P04439, D140Y/D185E/D98H/E176V/E277Q/G131W/G231S/I119V/I121R/I166T/I218V/L300P/L318F/N151K/N90K/P208A/P217A/Q86G/Q94H/R138H/R169H/T345S). Put plainly: MHC binding assay (UV-ligand exchange, beta2m ELISA). The following applies: binding to HLA-A*02:01 ranged by peptide exchange yield (UV-ligand exchange, β2m ELISA). The source says: Candidate peptides for T cell based therapies according to the present invention were further tested for their MHC binding capacity (affinity). The individual peptide-MHC complexes were produced by UV-ligand exchange, where a UV-sensitive peptide is cleaved upon UV-irradiation, and exchanged with the peptide of interest as analyzed. Only peptide candidates that can effectively bind and stabilize the peptide-receptive MHC molecules prevent dissociation of the MHC complexes. To determine the yield of the exchange reaction, an ELISA was performed based on the detection of the light chain (β2m) of stabilized MHC complexes. The assay was performed as generally described in Rodenko et al. (Rodenko et al., 2006).
96 well MAXISorp plates (NUNC) were coated over night with 2 ug/ml streptavidin in PBS at room temperature, washed 4× and blocked for 1 h at 37° C. in 2% BSA containing blocking buffer. […] Peptide-MHC monomers of the UV-exchange reaction were diluted 100 fold in blocking buffer. Samples were incubated for 1 h at 37° C., washed four times, incubated with 2 ug/ml HRP conjugated anti-β2m for 1 h at 37° C., washed again and detected with TMB solution that is stopped with […]. Absorption was measured at 450 nm. Candidate peptides that show a high exchange yield (preferably higher than 50%, most preferred higher than 75%) are generally preferred for a generation and production of antibodies or fragments thereof, and/or T cell receptors or fragments thereof, as they show sufficient avidity to the MHC molecules and prevent dissociation of the MHC complexes.
(In an ELISA, binding on a coated surface is turned into a signal by an enzyme label.)
For “67 (TLLAEALVTV; listed as Homo sapiens) [compound 67]”, the Peptide exchange result was ““+++” (≥50 = +++)”. To “68 (SLMELPRGLFL; listed as Homo sapiens) [compound 68]” belongs ““++++” (≥75% = ++++)”; to “69 (FQLDPSSGVLVTV; listed as Homo sapiens) [compound 69]”, ““+++” (≥50 = +++)”. Next, “70 (GLLDYPVGV; listed as Homo sapiens) [compound 70]”: ““+++” (≥50 = +++)”. Next, “71 (GILARIASV; listed as Homo sapiens) [compound 71]”: ““+++” (≥50 = +++)”; “72 (SLLELDGINL; listed as Homo sapiens) [compound 72]”: ““+++” (≥50 = +++)”; “73 (NIFDLQIYV; listed as Homo sapiens) [compound 73]”: ““+++” (≥50 = +++)”. Regarding “74 (ALLDPEVLSIFV; listed as Homo sapiens) [compound 74]”, the Peptide exchange result is on record as ““+++” (≥50 = +++)”. “75 (GLLEVMVNL; listed as Homo sapiens) [compound 75]”: the Peptide exchange entry was ““+++” (≥50 = +++)”. With “76 (ILIDSIYKV; listed as Homo sapiens) [compound 76]”, the Peptide exchange entry is listed as ““+++” (≥50 = +++)”. To “77 (ILVEADGAWVV; listed as Homo sapiens) [compound 77]” belongs ““++++” (≥75% = ++++)”; to “78 (SLFSSLEPQIQPV; listed as Homo sapiens) [compound 78]”, ““+++” (≥50 = +++)”. For the substance “80 (FLYDNLVESL; listed as Homo sapiens) [compound 80]”, the Peptide exchange result is ““++” (≥20% = ++)”. Turning to “81 (FLFSQLQYL; listed as Homo sapiens) [compound 81]”, the Peptide exchange result is reported as ““++” (≥20% = ++)”.

In the case of “82 (FLSSVTYNL; listed as Homo sapiens) [compound 82]”, the Peptide exchange result is ““+++” (≥50 = +++)”. As for “83 (ILAPTVMMI; listed as Homo sapiens) [compound 83]”, the Peptide exchange result was ““+++” (≥50 = +++)”. As for “84 (VTFGEKLLGV; listed as Homo sapiens) [compound 84]”, the Peptide exchange result is given as ““++” (≥20% = ++)”.

For “85 (KMSELRVTL; listed as Homo sapiens) [compound 85]”, the Peptide exchange entry is listed as ““+++” (≥50 = +++)”. With “86 (NLIGKIENV; listed as Homo sapiens) [compound 86]”, the Peptide exchange entry is ““+++” (≥50 = +++)”. Turning to “87 (ALPEAPAPLLPHIT; listed as Homo sapiens) [compound 87]”, the Peptide exchange entry is recorded as ““++” (≥20% = ++)”. For the substance “88 (FLLVGDLMAV; listed as Homo sapiens) [compound 88]”, the Peptide exchange result is ““+++” (≥50 = +++)”. For “89 (YILPTETIYV; listed as Homo sapiens) [compound 89]”, the Peptide exchange entry is listed as ““++++” (≥75% = ++++)”.

Turning to “90 (TLLQIIETV; listed as Homo sapiens) [compound 90]”, the Peptide exchange result is ““+++” (≥50 = +++)”. Regarding “91 (IMQDFPAEIFL; listed as Homo sapiens) [compound 91]”, the Peptide exchange result was ““++++” (≥75% = ++++)”. For “92 (YLIPFTGIVGL; listed as Homo sapiens) [compound 92]”, the Peptide exchange entry is given as ““++” (≥20% = ++)”. To “93 (LLQAIKLYL; listed as Homo sapiens) [compound 93]” belongs ““++” (≥20% = ++)”; to “94 (YLIDIKTIAI; listed as Homo sapiens) [compound 94]”, ““++” (≥20% = ++)”; to “95 (SVIPQIQKV; listed as Homo sapiens) [compound 95]”, ““+++” (≥50 = +++)”.

Consider “96 (YIFTDNPAAV; listed as Homo sapiens) [compound 96]”, for which the Peptide exchange entry is recorded as ““+++” (≥50 = +++)”. To “97 (SLINGSFLV; listed as Homo sapiens) [compound 97]” belongs ““+++” (≥50 = +++)”; to “98 (LIIDQADIYL; listed as Homo sapiens) [compound 98]”, ““+++” (≥50 = +++)”. Next, “99 (ALVSKGLATV; listed as Homo sapiens) [compound 99]”: ““++” (≥20% = ++)”. To “100 (YLLSTNAQL; listed as Homo sapiens) [compound 100]” belongs ““++++” (≥75% = ++++)”; to “101 (ILVGGGALATV; listed as Homo sapiens) [compound 101]”, ““+++” (≥50 = +++)”.

Regarding “102 (YLFESEGLVL; listed as Homo sapiens) [compound 102]”, the Peptide exchange result is given as ““+++” (≥50 = +++)”. Turning to “103 (TLAEEVVAL; listed as Homo sapiens) [compound 103]”, the Peptide exchange entry is ““+++” (≥50 = +++)”. To “104 (STMEQNFLL; listed as Homo sapiens) [compound 104]” belongs ““++++” (≥75% = ++++)”. In the case of “106 (LLYDAVHIVSV; listed as Homo sapiens) [compound 106]”, the Peptide exchange entry is recorded as ““+++” (≥50 = +++)”. Next, “107 (FLQPVDDTQHL; listed as Homo sapiens) [compound 107]”: ““+++” (≥50 = +++)”; “108 (ALFPGVALLLA; listed as Homo sapiens) [compound 108]”: ““++++” (≥75% = ++++)”; “109 (IILSILEQA; listed as Homo sapiens) [compound 109]”: ““++++” (≥75% = ++++)”. To “110 (FLSQVDFEL; listed as Homo sapiens) [compound 110]” belongs ““+++” (≥50 = +++)”; to “111 (YVWGFYPAEV; listed as Homo sapiens) [compound 111]”, ““+++” (≥50 = +++)”. Next, “114 (SLVGEPILQNV; listed as Homo sapiens) [compound 114]”: ““++” (≥20% = ++)”; “115 (AIAGAGILYGV; listed as Homo sapiens) [compound 115]”: ““++” (≥20% = ++)”; “116 (YHIDEEVGF; listed as Homo sapiens) [compound 116]”: ““+” (≥10% = +)”. For “117 (ILPDGEDFLAV; listed as Homo sapiens) [compound 117]”, the Peptide exchange entry is ““+++” (≥50 = +++)”. For “119 (FLYIGDIVSL; listed as Homo sapiens) [compound 119]”, the Peptide exchange entry is listed as ““++++” (≥75% = ++++)”. To “120 (ALLGIPLTLV; listed as Homo sapiens) [compound 120]” belongs ““+++” (≥50 = +++)”; to “121 (GVVDPRAISVL; listed as Homo sapiens) [compound 121]”, ““++” (≥20% = ++)”.

Take “122 (FLLAEDDIYL; listed as Homo sapiens) [compound 122]”: the Peptide exchange result is given as ““+++” (≥50 = +++)”.

Turning to “123 (NLWDLTDASVV; listed as Homo sapiens) [compound 123]”, the Peptide exchange entry is ““+++” (≥50 = +++)”. As for “124 (ALYETELADA; listed as Homo sapiens) [compound 124]”, the Peptide exchange entry was ““++” (≥20% = ++)”. Regarding “125 (VQIHQVAQV; listed as Homo sapiens) [compound 125]”, the Peptide exchange entry is on record as ““+++” (≥50 = +++)”. In the case of “126 (VLAYFLPEA; listed as Homo sapiens) [compound 126]”, the Peptide exchange result is reported as ““++++” (≥75% = ++++)”. Next, “127 (KIGDEPPKV; listed as Homo sapiens) [compound 127]”: ““++” (≥20% = ++)”; “128 (YLFDDPLSAV; listed as Homo sapiens) [compound 128]”: ““++” (≥20% = ++)”; “129 (GLLDGGVDILL; listed as Homo sapiens) [compound 129]”: ““+++” (≥50 = +++)”. Next, “130 (FLWNGEDSALL; listed as Homo sapiens) [compound 130]”: ““+++” (≥50 = +++)”; “131 (FVPPVTVFPSL; listed as Homo sapiens) [compound 131]”: ““++” (≥20% = ++)”. To “132 (LLVEQPPLAGV; listed as Homo sapiens) [compound 132]” belongs ““+++” (≥50 = +++)”; to “133 (KVLSNIHTV; listed as Homo sapiens) [compound 133]”, ““++” (≥20% = ++)”; to “134 (YLQELIFSV; listed as Homo sapiens) [compound 134]”, ““+++” (≥50 = +++)”. Consider “135 (ALSEVDFQL; listed as Homo sapiens) [compound 135]”, for which the Peptide exchange result was ““+++” (≥50 = +++)”. Next, “136 (YLADPSNLFVV; listed as Homo sapiens) [compound 136]”: ““+++” (≥50 = +++)”.
